Source: patent CN114621343A

What was measured:
[1] = biological target: JEV病毒抗原 (JEV Beijing-1株) (Japanese encephalitis virus, Beijing-1 strain); assay: cell-based or functional assay
[2] = biological target: JEV包膜E蛋白 (Japanese encephalitis virus (strain not stated)); assay: SPR, Biacore T200; 2G1 captured on CM5 chip, E protein as analyte

B1: 乙型脑炎病毒鼠源性单克隆抗体2G1 (antibody, V domains shown)
VH: DVQLQESGLDRVKPSQSLSLTCTVTGYSIISGYSWHWIRQFPGKKLEWMGYIHYSGSATYSPSLKSRISITRDTSKNQFFLQLNSVTTEDTATFYCARGDGSSPYYGMDHWGQGTSVTVSS
VL: DIVLTQSPPSLAVSLGQRATISCRASESVEYSGTGLIHWYQQKPGQPPKLLIYAASSVESGVPARFSGSGSGTDFSLNIHPVEDDDLALYFCQQSRKLPWTFGGGSKLEINR
For B1, the 半数中和浓度(Neut50) [1] was 0.149 µg/mL, the Kd [2] was 16.5 nM and the koff [2] was 7.06e-05 s⁻¹. For the same binder, the kon [2] was 4270 M⁻¹ s⁻¹.
